One variant from IntAct's records for PubMed 36435842 can be followed below.

B1: Golgi phosphoprotein 3 homolog sauron (Drosophila melanogaster (Fruit fly)), Q9VQ93 (parent)
chain: MNRSDGLVRRSVKPRENGGAEGGLNANTPDDNQDALDNLKDQEDNIDDGDSKETRLTLMEEVLLLGLKDKEGYTSFWNDCISSGLRGCILIELGLRGRVMIEKSGMRRRGLCTRKLILKSDQQTGDVLLDEALKHIKETDPPETVQSWIEYLSGETWNPLKLRYQLKNVRERLAKNLVEKGVLTTEKQNFLLFDMTTHPLSDNVVKCRLVKKIQDSVLSKWVNDPQRMDKRMLALIFLAHASDVIENAFAPLNDDDYEVAMKRVRELLDLDFEAESAKPNANEILWAVFMAFTK
partner: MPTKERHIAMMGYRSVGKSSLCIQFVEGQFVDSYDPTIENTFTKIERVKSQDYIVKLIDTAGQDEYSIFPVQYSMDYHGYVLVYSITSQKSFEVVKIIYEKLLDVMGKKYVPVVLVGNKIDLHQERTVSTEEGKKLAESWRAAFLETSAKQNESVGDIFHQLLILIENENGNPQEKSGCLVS

Variants of B1 are the subject of the assay. The conditions noted are these: with rheb_drome Rheb.
As for K167A;R170L, the “effect of a mutation on the interaction” value is “disrupting interaction strength”.
